Data: patent EP4585618A1 (Jiangsu Hengrui Pharmaceuticals Co., Ltd., dated 2025)

Legend:
[1] = target: T1, LILRA5-His (Acro, LI5-H82E1) (human, UniProt A6NI73 42-268); assay: ELISA, coated protein 1 µg/mL
T1 construct: Bought protein. 'Human' stands at the head of the list of coated proteins; not shown: His tag

[2] = target: T2, LILRA6-His (Acro, LI6-H82E2) (human, UniProt Q6PI73 24-447); assay: ELISA, coated protein 1 µg/mL
T2 construct: Bought protein. 'Human' stands at the head of the list of coated proteins; not shown: His tag

[3] = target: T3, His-tagged ILT2 protein extracellular domain: ILT2-His (human, UniProt Q8NHL6 24-461); assay: ELISA, coated protein 1 µg/mL
T3 construct: The entry is the whole construct, with the His tag; also called human ILT2 protein

[4] = target: T4, His-tagged ILT3 protein extracellular domain: ILT3-His (human, UniProt Q8NHJ6 22-259); assay: ELISA, coated protein 1 µg/mL
T4 construct: The entry is the whole construct, with the His tag

[5] = target: T5, LILRB5-His (Acro, CDC-H5220) (human, UniProt O75023 24-458, limits assumed); assay: ELISA, coated protein 1 µg/mL
T5 construct: Bought protein. 'Human' stands at the head of the list of coated proteins; not shown: His tag

[6] = target: T6, LILRA1-His (Acro, LI1-H82E8) (human, UniProt O75019 17-461); assay: ELISA, coated protein 1 µg/mL
T6 construct: Bought protein. 'Human' stands at the head of the list of coated proteins; not shown: His tag

[7] = target: T7, LILRA2-His (Acro, LI2-H82E9) (human, UniProt Q8N149 24-449); assay: ELISA, coated protein 1 µg/mL
T7 construct: Bought protein. 'Human' stands at the head of the list of coated proteins; not shown: His tag

[8] = target: T8, LILRA3-His (Acro, LI3-H82E0) (human, UniProt Q8N6C8 24-439); assay: ELISA, coated protein 1 µg/mL
T8 construct: Bought protein. 'Human' stands at the head of the list of coated proteins; not shown: His tag

[9] = target: T9, LILRA4-His (SinoBiological, 16058-H08H) (human, UniProt P59901 24-446); assay: ELISA, coated protein 1 µg/mL
T9 construct: Bought protein. 'Human' stands at the head of the list of coated proteins; not shown: His tag

[10] = target: T10, His-tagged ILT4 protein extracellular domain: ILT4-His (human, UniProt Q8N423 22-460); assay: ELISA, coated protein 1 µg/mL, antibody 10 µg/mL
T10 construct: Expressed in 293 cells; also called human ILT4-His protein

[11] = target: T1, LILRA5-His (Acro, LI5-H82E1); assay: ELISA, coated protein 1 µg/mL, antibody 10 µg/mL
[12] = target: T2, LILRA6-His (Acro, LI6-H82E2); assay: ELISA, coated protein 1 µg/mL, antibody 10 µg/mL
[13] = target: T3, His-tagged ILT2 protein extracellular …; assay: ELISA, coated protein 1 µg/mL, antibody 10 µg/mL
[14] = target: T4, His-tagged ILT3 protein extracellular …; assay: ELISA, coated protein 1 µg/mL, antibody 10 µg/mL
[15] = target: T5, LILRB5-His (Acro, CDC-H5220); assay: ELISA, coated protein 1 µg/mL, antibody 10 µg/mL
[16] = target: T6, LILRA1-His (Acro, LI1-H82E8); assay: ELISA, coated protein 1 µg/mL, antibody 10 µg/mL
[17] = target: T7, LILRA2-His (Acro, LI2-H82E9); assay: ELISA, coated protein 1 µg/mL, antibody 10 µg/mL
[18] = target: T8, LILRA3-His (Acro, LI3-H82E0); assay: ELISA, coated protein 1 µg/mL, antibody 10 µg/mL
[19] = target: T9, LILRA4-His (SinoBiological, 16058-H08H); assay: ELISA, coated protein 1 µg/mL, antibody 10 µg/mL
[20] = target: T11, full-length human ILT4 protein overexpressed on cells (human, UniProt Q8N423 22-597); assay: flow cytometry (FACS) on CHO-S/ILT4 cells; Assay 1
T11 construct: also called CHO-S/ILT4; ILT4 stably transfected cell strain

[21] = target: T10, His-tagged ILT4 protein extracellular …; assay: SPR (Biacore), antibody captured on Protein A chip, ILT4-His as analyte, 1:1 model
[22] = target: T11, full-length human ILT4 protein …; assay: flow cytometry competition on CHO-S/ILT4 cells; competitor CF647-labelled HLA-G tetramer; Assay 1
[23] = target: T11, full-length human ILT4 protein …; assay: flow cytometry competition on CHO-S/ILT4 cells; competitor CF647-labelled HLA-G tetramer; Assay 2
[24] = target: T11, full-length human ILT4 protein …; assay: flow cytometry competition on CHO-S/ILT4 cells; competitor CF647-labelled HLA-G tetramer; Assay 3
[25] = target: T11, full-length human ILT4 protein …; assay: flow cytometry competition on CHO-S/ILT4 cells; competitor CF647-labelled HLA-G tetramer; Assay 4
[26] = target: T10, His-tagged ILT4 protein extracellular …; assay: phage ELISA
[27] = target: T3, His-tagged ILT2 protein extracellular …; assay: phage ELISA

T10 sequence (Q8N423 other isoform, or with tags, fused parts or gaps limits assumed): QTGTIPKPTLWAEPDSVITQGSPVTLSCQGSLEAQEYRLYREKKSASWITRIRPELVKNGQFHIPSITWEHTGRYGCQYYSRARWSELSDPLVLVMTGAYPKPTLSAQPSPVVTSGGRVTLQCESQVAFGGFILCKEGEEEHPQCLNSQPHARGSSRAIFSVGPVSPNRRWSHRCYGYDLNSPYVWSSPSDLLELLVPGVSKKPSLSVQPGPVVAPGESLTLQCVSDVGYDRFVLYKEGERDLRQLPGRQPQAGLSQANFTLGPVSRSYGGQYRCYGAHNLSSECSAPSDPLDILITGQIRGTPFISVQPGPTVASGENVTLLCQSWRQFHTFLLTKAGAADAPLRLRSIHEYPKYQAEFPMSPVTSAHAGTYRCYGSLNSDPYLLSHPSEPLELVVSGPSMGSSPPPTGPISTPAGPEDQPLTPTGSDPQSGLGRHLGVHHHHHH
T3 sequence (Q8NHL6 other isoform, or with tags, fused parts or gaps): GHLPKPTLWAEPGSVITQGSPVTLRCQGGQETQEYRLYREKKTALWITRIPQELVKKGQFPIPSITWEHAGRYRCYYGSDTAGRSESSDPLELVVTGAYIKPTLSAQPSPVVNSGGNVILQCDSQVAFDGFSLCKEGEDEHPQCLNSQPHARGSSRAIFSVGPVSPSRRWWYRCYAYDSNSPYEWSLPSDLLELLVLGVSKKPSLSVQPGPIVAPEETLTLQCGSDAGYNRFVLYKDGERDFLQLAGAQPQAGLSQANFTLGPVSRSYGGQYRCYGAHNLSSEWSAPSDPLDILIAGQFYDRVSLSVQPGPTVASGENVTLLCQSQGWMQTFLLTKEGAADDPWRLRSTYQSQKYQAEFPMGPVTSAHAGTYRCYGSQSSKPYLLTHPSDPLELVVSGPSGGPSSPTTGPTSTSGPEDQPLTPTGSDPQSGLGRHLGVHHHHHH
T11 sequence (Q8N423 other isoform, or with tags, fused parts or gaps limits assumed): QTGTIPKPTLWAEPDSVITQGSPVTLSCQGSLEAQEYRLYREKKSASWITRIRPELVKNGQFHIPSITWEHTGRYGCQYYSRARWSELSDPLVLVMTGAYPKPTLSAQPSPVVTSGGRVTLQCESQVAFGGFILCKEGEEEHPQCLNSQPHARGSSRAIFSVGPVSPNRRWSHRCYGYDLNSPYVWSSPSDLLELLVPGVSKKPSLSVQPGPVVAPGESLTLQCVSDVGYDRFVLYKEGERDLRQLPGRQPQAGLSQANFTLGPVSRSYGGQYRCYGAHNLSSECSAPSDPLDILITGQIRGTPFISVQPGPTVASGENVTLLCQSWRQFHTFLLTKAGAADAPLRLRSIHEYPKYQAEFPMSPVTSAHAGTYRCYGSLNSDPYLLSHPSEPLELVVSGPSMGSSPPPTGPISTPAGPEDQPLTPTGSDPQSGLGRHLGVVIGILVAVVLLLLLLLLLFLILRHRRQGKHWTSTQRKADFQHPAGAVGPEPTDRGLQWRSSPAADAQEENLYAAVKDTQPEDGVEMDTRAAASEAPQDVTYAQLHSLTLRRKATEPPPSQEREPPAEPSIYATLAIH
T8 sequence (Q8N6C8 24-439 limits assumed): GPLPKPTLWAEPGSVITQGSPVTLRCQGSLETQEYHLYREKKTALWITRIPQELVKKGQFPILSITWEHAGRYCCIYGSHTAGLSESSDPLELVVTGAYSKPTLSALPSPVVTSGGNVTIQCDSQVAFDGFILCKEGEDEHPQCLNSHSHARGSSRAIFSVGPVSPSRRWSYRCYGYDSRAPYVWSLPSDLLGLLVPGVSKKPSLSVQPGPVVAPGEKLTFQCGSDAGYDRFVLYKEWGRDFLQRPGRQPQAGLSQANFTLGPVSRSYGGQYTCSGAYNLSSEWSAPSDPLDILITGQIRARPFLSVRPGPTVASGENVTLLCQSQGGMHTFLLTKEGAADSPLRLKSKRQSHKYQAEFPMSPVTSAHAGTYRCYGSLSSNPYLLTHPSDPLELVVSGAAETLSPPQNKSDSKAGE
T9 sequence (P59901 24-446 limits assumed): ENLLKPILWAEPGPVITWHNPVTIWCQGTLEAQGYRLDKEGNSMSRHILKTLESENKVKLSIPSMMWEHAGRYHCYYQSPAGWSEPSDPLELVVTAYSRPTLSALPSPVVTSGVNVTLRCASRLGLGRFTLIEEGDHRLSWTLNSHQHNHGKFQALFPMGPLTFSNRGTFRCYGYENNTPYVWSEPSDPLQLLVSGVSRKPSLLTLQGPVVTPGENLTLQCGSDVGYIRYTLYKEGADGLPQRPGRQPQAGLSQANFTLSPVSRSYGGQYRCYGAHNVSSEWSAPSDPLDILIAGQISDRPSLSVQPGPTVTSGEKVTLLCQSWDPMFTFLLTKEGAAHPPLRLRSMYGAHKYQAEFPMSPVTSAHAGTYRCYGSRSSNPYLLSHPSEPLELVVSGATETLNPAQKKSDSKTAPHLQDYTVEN
T1 sequence (A6NI73 42-268 limits assumed): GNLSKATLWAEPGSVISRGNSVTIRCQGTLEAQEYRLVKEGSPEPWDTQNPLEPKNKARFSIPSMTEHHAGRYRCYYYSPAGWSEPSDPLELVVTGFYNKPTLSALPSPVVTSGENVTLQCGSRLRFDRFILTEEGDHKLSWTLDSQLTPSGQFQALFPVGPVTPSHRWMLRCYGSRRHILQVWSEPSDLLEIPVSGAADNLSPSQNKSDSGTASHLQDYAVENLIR
T6 sequence (O75019 17-461 limits assumed): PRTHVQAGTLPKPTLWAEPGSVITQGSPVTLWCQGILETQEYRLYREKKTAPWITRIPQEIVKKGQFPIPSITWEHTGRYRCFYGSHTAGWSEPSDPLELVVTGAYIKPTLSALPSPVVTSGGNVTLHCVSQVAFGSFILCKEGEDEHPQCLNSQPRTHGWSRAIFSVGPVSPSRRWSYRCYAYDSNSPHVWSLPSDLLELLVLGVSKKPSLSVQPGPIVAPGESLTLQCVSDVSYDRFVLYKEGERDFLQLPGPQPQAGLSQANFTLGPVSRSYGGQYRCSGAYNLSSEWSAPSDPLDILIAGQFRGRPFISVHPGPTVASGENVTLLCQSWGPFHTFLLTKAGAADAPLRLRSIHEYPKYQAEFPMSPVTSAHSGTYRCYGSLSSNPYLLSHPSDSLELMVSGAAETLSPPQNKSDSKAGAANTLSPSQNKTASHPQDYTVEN
T5 sequence (O75023 24-458 limits assumed): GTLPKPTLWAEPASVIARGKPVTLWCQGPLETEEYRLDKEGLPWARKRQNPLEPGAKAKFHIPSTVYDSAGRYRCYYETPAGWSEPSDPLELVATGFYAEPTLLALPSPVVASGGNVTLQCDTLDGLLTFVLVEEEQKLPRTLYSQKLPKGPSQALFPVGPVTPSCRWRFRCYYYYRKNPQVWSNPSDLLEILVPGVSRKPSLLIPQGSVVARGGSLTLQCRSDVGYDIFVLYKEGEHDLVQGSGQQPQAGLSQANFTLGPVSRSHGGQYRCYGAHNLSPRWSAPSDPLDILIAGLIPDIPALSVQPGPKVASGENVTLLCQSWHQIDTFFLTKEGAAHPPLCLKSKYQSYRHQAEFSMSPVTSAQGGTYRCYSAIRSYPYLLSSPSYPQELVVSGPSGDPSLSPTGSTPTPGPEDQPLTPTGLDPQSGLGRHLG
T2 sequence (Q6PI73 24-447 limits assumed): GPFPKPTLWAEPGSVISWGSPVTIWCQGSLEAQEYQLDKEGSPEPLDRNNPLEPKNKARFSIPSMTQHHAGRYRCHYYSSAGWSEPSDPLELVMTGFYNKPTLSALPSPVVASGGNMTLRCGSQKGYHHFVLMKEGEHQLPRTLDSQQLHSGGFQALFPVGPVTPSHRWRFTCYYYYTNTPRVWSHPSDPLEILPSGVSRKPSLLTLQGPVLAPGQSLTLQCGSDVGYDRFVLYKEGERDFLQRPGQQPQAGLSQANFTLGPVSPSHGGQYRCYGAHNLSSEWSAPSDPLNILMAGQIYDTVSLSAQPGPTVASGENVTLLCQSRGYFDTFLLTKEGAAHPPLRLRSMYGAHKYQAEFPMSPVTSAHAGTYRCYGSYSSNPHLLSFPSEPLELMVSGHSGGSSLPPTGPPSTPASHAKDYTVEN
T7 sequence (Q8N149 24-449 limits assumed): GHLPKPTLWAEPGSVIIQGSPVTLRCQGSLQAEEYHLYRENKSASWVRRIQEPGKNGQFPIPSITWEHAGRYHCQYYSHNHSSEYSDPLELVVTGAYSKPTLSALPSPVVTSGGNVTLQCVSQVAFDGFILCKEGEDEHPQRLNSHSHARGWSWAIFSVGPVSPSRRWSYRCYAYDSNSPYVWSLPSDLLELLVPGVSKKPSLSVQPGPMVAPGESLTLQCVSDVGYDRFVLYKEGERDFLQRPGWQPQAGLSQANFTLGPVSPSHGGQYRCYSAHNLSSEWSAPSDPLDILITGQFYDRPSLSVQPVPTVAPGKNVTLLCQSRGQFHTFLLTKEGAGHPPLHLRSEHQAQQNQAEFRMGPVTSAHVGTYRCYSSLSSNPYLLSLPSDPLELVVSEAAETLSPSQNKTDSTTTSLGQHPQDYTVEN

B1: humanized antibody huP2-E3 (antibody, human IgG4 S228P, kappa, F234A L235A, V domains shown)
VH: EVQLVQSGAEVKKPGASVKVSCKASGYTFTDYYMNWVKQAPGQRLEWMGDINPNSGGTSYNQKFKGRVTITVDKSGSTAYMELSSLRSEDTAVYYCARGGVTTVVATYWYFDVWGQGTTVTVSS
VL: DIQMTQSPSSLSASVGDRVTITCRASENIYSNLAWYQQKPGKSPKLLVYAATNVADGVPSRFSGSGSGTDYTLTISSLQPEDFATYYCQQFWDTPFTFGQGTKLEIKR
notes: Full chains; The constant region is hIgG1(LALA) or hIgG4(LALA) with a kappa CL; also called P2-E3H6L2
- binding result [1]: no binding (tested: 10 µg/mL)
- binding result [2]: no binding (tested: 10 µg/mL)
- binding result [3]: no binding (tested: 10 µg/mL)
- binding result [4]: no binding (tested: 10 µg/mL)
- binding result [5]: no binding (tested: 10 µg/mL)
- binding result [6]: no binding (tested: 10 µg/mL)
- binding result [7]: no binding (tested: 10 µg/mL)
- binding result [8]: no binding (tested: 10 µg/mL)
- binding result [9]: no binding (tested: 10 µg/mL)
- absorbance at 450 nm [10]: 1.04 absorbance at 450 nm
- absorbance at 450 nm [11]: 0.0466 absorbance at 450 nm
- absorbance at 450 nm [12]: 0.047 absorbance at 450 nm
- absorbance at 450 nm [13]: 0.0541 absorbance at 450 nm
- absorbance at 450 nm [14]: 0.0699 absorbance at 450 nm
- absorbance at 450 nm [15]: 0.0523 absorbance at 450 nm
- absorbance at 450 nm [16]: 0.0532 absorbance at 450 nm
- absorbance at 450 nm [17]: 0.055 absorbance at 450 nm
- absorbance at 450 nm [18]: 0.0476 absorbance at 450 nm
- absorbance at 450 nm [19]: 0.0605 absorbance at 450 nm
- EC50 [20]: 0.0307 µg/mL
- Kd [21]: 1.26 nM
- koff [21]: 0.00127 s⁻¹
- kon [21]: 1.01e+06 M⁻¹ s⁻¹
- IC50 [22]: 0.012 µg/mL

B2: positive control antibody MK (sequences from WO2018187518A1) (antibody, human IgG4 S228P, lambda, V domains shown)
VH: EVQLQQWGAGLLKPSETLSLTCAVYGGSFSGYYWSWIRQPPGKGLEWIGEINHAGSTNYNPSLKSRVTISVDTSKNQFSLKLSSVTAADTAVYYCARLPTRWVTTRYFDLWGRGTLVTVSS
VL: ESVLTQPPSVSGAPGQRVTISCTGSSSNIGAGYDVHWYQQLPGTAPKLLIYGDSNRPSGVPDRFSVSKSGASASLAITGLQAEDEADYYCQSFDNSLSAYVFGGGTQLTVLG
- EC50 [20]: 0.031 µg/mL
- Kd [21]: 19.1 nM
- koff [21]: 0.00863 s⁻¹
- kon [21]: 452000 M⁻¹ s⁻¹
- IC50 [22]: 0.031 µg/mL
- IC50 [23]: 0.138 µg/mL
- IC50 [24]: 0.138 µg/mL
- IC50 [25]: 0.092 µg/mL

B3: P2 (fully human-derived antibody clone from phage library screening) (antibody, V domains shown)
VH: QVQLVQSGAEVKKPGSSVKVSCKASGYTFTSYDISWVRQAPGQGLEWMGGIIPIFGTANYAQKFQGRVTITADESTSTAYMELSSLRSEDTAVYYCTAGIFLATAYWGQGTLVTVSS
VL: DIQMTQSPSSMSASVGDRVTISCQASQDINNYLNWYQQRPGQAPKLLIYDASTLETGVPSRFSGSGSGTYFTLTITSLQPADVATYYCQQYENVPITFGQGTRLEIK
- binding result [26]: binds
- binding result [27]: no binding
